{"source": "patent US20130130347", "about": "“CONSTRUCTS AND METHODS FOR THE ASSEMBLY OF BIOLOGICAL PATHWAYS” (CORNELL UNIVERSITY, published 2013)", "binders": {"B1": {"name": "Zif268 binding site DNA (dsDNA)", "DNA 1": "GCGTGGGCG", "DNA 2": "CGCCCACGC"}, "B2": {"name": "scrambled control scaffold (dsDNA)", "DNA 1": "GTTACTACTCGAGCGGAATTCATCTAAGTTACTAGAGTCCTTATAGTTGACTCTTGTTCCACATTCTACTGTACACGCTCAGTACTCGAGCATACCTATCTCCTGCAGTACA", "DNA 2": "TGTACTGCAGGAGATAGGTATGCTCGAGTACTGAGCGTGTACAGTAGAATGTGGAACAAGAGTCAACTATAAGGACTCTAGTAACTTAGATGAATTCCGCTCGAGTAGTAAC"}, "B3": {"name": "ZFc binding site DNA (dsDNA)", "DNA 1": "GAGGACGGC", "DNA 2": "GCCGTCCTC"}, "B4": {"name": "DNA scaffold with Zif268 and PBSII sites, 2-bp spacer (dsDNA)", "DNA 1": "GTTACTACTCGAGCGATCGGAATTCGAAGGGGAATTGCTGCTGCGGTGTTTGGATGGAGCGTGGGCGGGGTGTGGAAATTGATGCTGCATTGACCACCCAAGACGACTGCAGTACA", "DNA 2": "TGTACTGCAGTCGTCTTGGGTGGTCAATGCAGCATCAATTTCCACACCCCGCCCACGCTCCATCCAAACACCGCAGCAGCAATTCCCCTTCGAATTCCGATCGCTCGAGTAGTAAC"}, "B5": {"name": "PBSII binding site DNA (dsDNA)", "DNA 1": "GTGTGGAAA", "DNA 2": "TTTCCACAC"}, "B6": {"name": "ZFb binding site DNA (dsDNA)", "DNA 1": "GCGGCTGGG", "DNA 2": "CCCAGCCGC"}, "B7": {"name": "ZFa binding site DNA (dsDNA)", "DNA 1": "GTCGATGCC", "DNA 2": "GGCATCGAC"}}, "key": {"[1]": {"target": "cYFP-Zif268 chimera", "assay": "EMSA; full oligo sequence not given; text states low nanomolar affinity without values"}, "[2]": {"target": "cYFP-Zif268 chimera", "assay": "SPR; random scaffold reference, 1 uM protein; used to correct for unspecific binding"}, "[3]": {"target": "MBP-ZFc (OZ076) (artificial)", "sequence (chain, as listed by the source)": "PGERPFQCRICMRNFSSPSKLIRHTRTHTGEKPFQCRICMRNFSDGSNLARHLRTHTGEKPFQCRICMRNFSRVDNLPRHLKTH", "assay": "EMSA; biotinylated oligo, flanks not given; text states low nanomolar affinity without values", "details": "label: 5'-biotin", "protocol": "(§1) From this analysis, the amount of ZF-chimera present in cells was estimated at approximately 5000 per cell or 8 μM. The plasmid concentration in cells was determined to be approximately 127 per cell or […]. These values were used to design/select ZF domains with appropriate affinity and to design DNA scaffolds with enough binding sites to accommodate all ZF fusion proteins. FIG. 4B is a western blot analysis comparing the soluble and insoluble protein levels of unmodified MBP with MBP fused to 1, 2, 3 or 4 fingers as indicated. Flow cytometric analysis of cellular fluorescence levels of superfolder green fluorescent protein (sfGFP) fused to increasing number of fingers as indicated (FIG. 4B; right). FIG. 4C is an EMSA of purified PBSII-nYFP and cYFP-Zif268 chimeras using […] DNA with PBSII or Zif268 binding sites. MW, molecular weight ladder. Arrow indicates chimera-DNA complexes. EMSA of purified MBP-ZFa, MBP-ZFb and MBP-ZFc chimeras using varying amounts of biotinylated DNA containing the ZFa, ZFb or ZFc binding site is shown in FIG. 4D. Detection of DNA and DNA-protein complexes was with streptavidin-HRP against biotinylated DNA. […]\n(§2) For EMSA with PBSII and Zif268, 1 μg of the purified PBSII-nYFP and cYFP-Zif268 chimeras were incubated with 375 μM scaffold DNA for 3 h. […] Nucleic acid-protein complexes were detected under UV light. […]"}, "[4]": {"target": "PBSII-nYFP chimera (artificial)", "sequence (chain, as listed by the source mutant)": "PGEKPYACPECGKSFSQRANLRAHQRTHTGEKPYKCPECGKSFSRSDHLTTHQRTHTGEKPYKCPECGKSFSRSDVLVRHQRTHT", "assay": "SPR; injected as mixture with cYFP-Zif268, 5 uM; same SPR buffer with 0.1 mM ZnCl2", "details": "tags: nYFP C-terminal fusion, His", "protocol": "Proteins that were directly dialyzed against buffer A (see above) were used in surface plasmon resonance (SPR) experiments. Proteins were further concentrated using Amicon Ultra-15 Centrifugal Filter Unit with Ultracel-10 membrane. The experiments were conducted using T100 apparatus (GE Healthcare, Biacore) and streptavidin-coated sensor chip (SA). […] The biotinylated single-stranded anchor DNA (5′-CGCTCGAGTAGTAAC-3′-Biotin; SEQ ID NO: 41) was immobilized on all four flow-cells. The anchor allowed capture of the double-stranded DNA molecule with complementary overhang. A DNA scaffold (5′-[…]-3′; SEQ ID NO: 42) was used that contained ZF binding sites for Zif268 and PBSII (underlined), respectively. Control DNA (5′-[…]-3′; SEQ ID NO: 43) contained a scrambled version of the scaffold and was used to correct the responses for unspecific binding of ZF chimeras. The control DNA was immobilized in the first flow-cell, while the DNA scaffold was used in the second flow cell. Typically, immobilization of control and scaffold DNA used 0.5 μM DNA and was performed for 5 min at 5 μl/min. Protein binding was measured following injection of appropriate concentration of PBSII-nYFP and/or cYFP-Zif268 chimeras in the SPR buffer. The surface of the sensor chip was regenerated by two 30 s injections of 50 mM NaOH that removed the DNA from the anchor."}, "[5]": {"target": "cYFP-Zif268 chimera", "assay": "SPR; 20 mM HEPES pH 7.4, 150 mM NaCl, 2 mM DTT, 0.1 mM ZnCl2; 1 and 5 uM protein"}, "[6]": {"target": "PBSII-nYFP chimera (artificial)", "assay": "EMSA; full oligo sequence not given; text states low nanomolar affinity without values", "details": "tags: nYFP C-terminal fusion, His"}, "[7]": {"target": "MBP-ZFb (OZ300) (artificial)", "sequence (chain, as listed by the source)": "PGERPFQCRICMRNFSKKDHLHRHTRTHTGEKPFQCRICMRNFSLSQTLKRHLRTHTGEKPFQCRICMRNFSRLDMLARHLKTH", "assay": "EMSA; biotinylated oligo, flanks not given; text states low nanomolar affinity without values", "details": "label: 5'-biotin", "protocol": "as §1, §2"}, "[8]": {"target": "MBP-ZFa (OZ052) (artificial)", "sequence (chain, as listed by the source)": "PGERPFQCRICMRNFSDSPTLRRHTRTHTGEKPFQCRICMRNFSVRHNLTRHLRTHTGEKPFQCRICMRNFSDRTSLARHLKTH", "assay": "EMSA; biotinylated oligo, flanks not given; chimera-DNA dimer also seen; text states low nanomolar affinity without values", "details": "label: 5'-biotin", "protocol": "as §1, §2"}}}
{"binder": "B1", "values": [{"measurement": "binding result", "setting": "[1]", "result": "binds"}]}
{"binder": "B2", "values": [{"measurement": "binding result", "setting": "[2]", "result": "no binding"}]}
{"binder": "B3", "values": [{"measurement": "binding result", "setting": "[3]", "result": "binds"}]}
{"binder": "B4", "values": [{"measurement": "binding result", "setting": "[4]", "result": "binds"}, {"measurement": "binding result", "setting": "[5]", "result": "binds"}]}
{"binder": "B5", "values": [{"measurement": "binding result", "setting": "[6]", "result": "binds"}]}
{"binder": "B6", "values": [{"measurement": "binding result", "setting": "[7]", "result": "binds"}]}
{"binder": "B7", "values": [{"measurement": "binding result", "setting": "[8]", "result": "binds"}]}
